Source: patent publication US20170348438A1 (CASE WESTERN RESERVE UNIVERSITY, published 2017)
Positions of bridges follow the written chain, without caps; N, C: chain ends. Primed or numbered codes have the meaning given here. No end group written: not given here. PEG3′ = not defined here

B11: His-tagged MRP-14 (other)
chain: MTCKMSQLERNIETIINTFHQYSVKLGHPDTLNQGEFKELVRKDLQNFLKKENKNEKVIEHIMEDLDTNADKQLSFEEFIMLMARLTWASHEKMHEGDEGPGHHHKPGLGEGTP
notes: Commercial His-tagged protein, captured on a Ni-NTA chip for SPR and coated on plates for the phage ELISA; The position of the His tag is unknown; its order in the chain is arbitrary; not shown: His tag

Experiments:
[1] = target: T1, bovine serum albumin (bovine, UniProt P02769 25-607); assay: phage ELISA on BSA-blocked wells, HRP anti-M13 antibody, ABTS, absorbance 410 nm
T1 construct: Background control in the phage ELISA; also called BSA

[2] = target: B11; assay: SPR, His-tagged MRP-14 on Ni-NTA chip, saturation binding curve fit
[3] = target: T2, TMV-MTP6 (tobacco mosaic virus particle displaying MTP6) (tobacco mosaic virus, UniProt P69687 2-159, alkyne handle (3-ethynylaniline diazonium) on exterior tyrosine residues; about 20% of the coat proteins carry MTP6; C-terminal 3-monomer PEG spacer and azide, joined by CuAAC to an alkyne on …); assay: SPR, His-tagged MRP-14 on Ni-NTA chip, kinetic curve fit, concentration as MTP6 peptide
T2 construct: Whole virus nanoparticle (with its RNA) with about 400 MTP6 peptides on 2130 coat proteins

[4] = target: T2, TMV-MTP6 (tobacco mosaic virus particle …); assay: SPR, His-tagged MRP-14 on Ni-NTA chip, kinetic curve fit
[5] = target: T3, MRP-8/14 heterodimer (untagged MRP-8 premixed 1:1 with His-tagged MRP-14) (UniProt P05109 1-93; P06702 1-114); assay: SPR, MRP-8/14 held on Ni-NTA chip by the His tag of MRP-14, saturation binding curve fit; MRP-8/14 heterodimer on the chip, not MRP-14 alone
T3 construct: Formed by mixing equal molar amounts for 3 hours with 0.1 mM CaCl2; only MRP-14 has a His tag; not shown: His tag
T3 sequence 1: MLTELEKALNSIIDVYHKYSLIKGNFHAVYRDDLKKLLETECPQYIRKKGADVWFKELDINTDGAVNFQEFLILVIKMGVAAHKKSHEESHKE
T3 sequence 2: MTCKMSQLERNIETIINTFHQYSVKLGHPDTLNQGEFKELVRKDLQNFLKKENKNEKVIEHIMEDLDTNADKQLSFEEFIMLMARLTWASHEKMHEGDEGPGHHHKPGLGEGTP

[6] = target: B11; assay: SPR, His-tagged MRP-14 on Ni-NTA chip, peptide injected

T1 sequence (P02769 25-607 limits assumed): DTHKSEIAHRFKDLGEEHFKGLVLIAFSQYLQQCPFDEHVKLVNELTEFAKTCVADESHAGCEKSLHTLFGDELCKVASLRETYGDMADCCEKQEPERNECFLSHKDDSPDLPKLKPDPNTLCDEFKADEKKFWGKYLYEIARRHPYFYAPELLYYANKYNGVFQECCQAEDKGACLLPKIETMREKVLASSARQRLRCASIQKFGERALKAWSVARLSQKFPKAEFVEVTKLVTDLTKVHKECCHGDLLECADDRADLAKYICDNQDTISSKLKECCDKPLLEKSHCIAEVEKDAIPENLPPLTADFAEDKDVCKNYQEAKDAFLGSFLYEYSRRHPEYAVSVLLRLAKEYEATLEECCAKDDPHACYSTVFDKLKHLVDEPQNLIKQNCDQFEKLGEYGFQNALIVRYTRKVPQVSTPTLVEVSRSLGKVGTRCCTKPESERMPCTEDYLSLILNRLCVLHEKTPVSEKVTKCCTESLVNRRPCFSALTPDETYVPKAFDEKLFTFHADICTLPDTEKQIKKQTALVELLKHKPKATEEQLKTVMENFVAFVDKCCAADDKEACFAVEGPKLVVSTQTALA
T2 sequence (P69687 2-159): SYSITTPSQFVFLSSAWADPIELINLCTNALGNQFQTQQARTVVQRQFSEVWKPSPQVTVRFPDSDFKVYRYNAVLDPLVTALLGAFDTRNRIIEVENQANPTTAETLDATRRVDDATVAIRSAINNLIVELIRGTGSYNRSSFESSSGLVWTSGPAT

B1: M13 phage displaying MTP9 (ACPTGLHHAC) (peptide)
peptide: ACPTGLHHAC
modifications: disulfide 2-10 (inferred); also: displayed on M13 phage coat protein fusion
notes: Tested as whole phage in the ELISA; cyclic library; not shown: rest of the M13 coat protein fusion of the Ph.D.-C7C library (New England Biolabs); not described
Question: Does B1 bind [1]?
Answer: Result: no binding (tested: 2.5E+11 pfu/mL)

B2: M13 phage displaying MTP10 (ACRPKNNHSC) (peptide)
peptide: ACRPKNNHSC
modifications: disulfide 2-10 (inferred); also: displayed on M13 phage coat protein fusion
notes: as for B1
Question: Does B2 bind [1]?
Answer: Result: no binding (tested: 2.5E+11 pfu/mL)

B3: M13 phage displaying MTP1 (TTFHHHK) (peptide)
peptide: TTFHHHK
notes: Tested as whole phage in the ELISA; not shown: rest of the M13 coat protein fusion of the Ph.D.-7 library (New England Biolabs); not described
Question: Does B3 bind [1]?
Answer: Result: no binding (tested: 2.5E+11 pfu/mL)

B4: M13 phage displaying MTP2 (ASSHIHH) (peptide)
peptide: ASSHIHH
notes: as for B3
Question: Does B4 bind [1]?
Answer: Result: no binding (tested: 2.5E+11 pfu/mL)

B5: M13 phage displaying MTP3 (HNHMADP) (peptide)
peptide: HNHMADP
notes: as for B3
Question: Does B5 bind [1]?
Answer: Result: no binding (tested: 2.5E+11 pfu/mL)

B6: M13 phage displaying MTP4 (ACKAPAHHHC) (peptide)
peptide: ACKAPAHHHC
modifications: disulfide 2-10 (inferred); also: displayed on M13 phage coat protein fusion
notes: as for B1
Question: Does B6 bind [1]?
Answer: Result: no binding (tested: 2.5E+11 pfu/mL)

B7: M13 phage displaying MTP5 (ACNSHRHGAC) (peptide)
peptide: ACNSHRHGAC
modifications: disulfide 2-10 (inferred); also: displayed on M13 phage coat protein fusion
notes: as for B1
Question: Does B7 bind [1]?
Answer: Result: no binding (tested: 2.5E+11 pfu/mL)

B8: M13 phage displaying MTP6 (ACNSVHQHHC) (peptide)
peptide: ACNSVHQHHC
modifications: disulfide 2-10 (inferred); also: displayed on M13 phage coat protein fusion
notes: as for B1
Question: Does B8 bind [1]?
Answer: Result: no binding (tested: 2.5E+11 pfu/mL)

B9: M13 phage displaying MTP7 (ACYGKPEHHC) (peptide)
peptide: ACYGKPEHHC
modifications: disulfide 2-10 (inferred); also: displayed on M13 phage coat protein fusion
notes: as for B1
Question: Does B9 bind [1]?
Answer: Result: no binding (tested: 2.5E+11 pfu/mL)

B10: M13 phage displaying MTP8 (ACPHHPQKHC) (peptide)
peptide: ACPHHPQKHC
modifications: disulfide 2-10 (inferred); also: displayed on M13 phage coat protein fusion
notes: as for B1
Question: Does B10 bind [1]?
Answer: Result: no binding (tested: 2.5E+11 pfu/mL)

Question: How did the Kd [2] turn out when ASSHIHHGGGS-NH2 [MTP2 synthetic peptide ASSHIHHGGGS] was run?
Answer: Its Kd is 77.6 µM.

Question: Which results are given for B11?
Answer: Kd [3]: 0.754 µM; koff [4]: 0.000686 s⁻¹; kon [4]: 910 M⁻¹ s⁻¹

Question: Which Kd [5] does the source give for ACNSVHQHHCGGGS-NH2 (disulfide 2-10 (inferred), lead peptide) [MTP6 synthetic peptide ACNSVHQHHCGGGS] here?
Answer: Its Kd is 57.6 µM.

Question: And the Kd [2]?
Answer: The Kd was 39.6 µM.

Question: For HNHMADPGGGS-NH2 [MTP3 synthetic peptide HNHMADPGGGS], which Kd [2] is on record?
Answer: The Kd was 117 µM.

Question: ACNSVHQHHCGGGS-{PEG3′-azide} (disulfide 2-10 (inferred)) [MTP6-N3 (azide-functionalized MTP6)] was tested. Which Kd [2] did it give?
Answer: Its Kd is 55.7 µM.

B12: Scrambled peptide MDPHAHNGGGS (peptide)
peptide: MDPHAHNGGGS-NH2
notes: Synthetic control peptide with a GGGS spacer; also called scrambled control
Question: Does B12 bind [6]?
Answer: Result: no binding (tested: 6.25 µM to 100 µM)
